In patent US20200361992A1 (PROTAGONIST THERAPEUTICS, published 2020):
Starred links: 1 amine or outer side, 2 acyl side, 3 side chain; linkers in the order of their positions; H or OH if unused. Positions of bridges follow the written chain, without caps; N, C: chain ends. Non-standard residues stand in square brackets, D forms with d. Groups on a side chain read outwards from the residue. Primed or numbered codes have the meaning given here. *: point of attachment. PEG4′ = bifunctional PEG linker with 4 polyethylene glycol units; PEG12 = NCCOCCOCCOCCOCCOCCOCCOCCOCCOCCOCCOCCOCCC(=O)O; Phe(4-tBu) = CC(C)(C)c1ccc(C[C@H](N)C(=O)O)cc1; Phe(3,4-F2) = N[C@@H](Cc1ccc(F)c(F)c1)C(=O)O; Docosanoyl = CCCCCCCCCCCCCCCCCCCCCC(=O)*; Dip = N[C@H](C(=O)O)C(c1ccccc1)c1ccccc1; γGlu = O=C(O)[C@H](CCC(=O)[*:2])N[*:1]; 2Nal = N[C@@H](Cc1ccc2ccccc2c1)C(=O)O; AEF = NCCOc1ccc(C[C@H](N)C(=O)O)cc1; Palmitoyl = CCCCCCCCCCCCCCCC(=O)*; Pen = CC(C)(S)[C@H](N)C(=O)O; Isovaleryl = CC(C)CC(=O)*; PEG2′ = not defined here; PEG8′ = not defined here; Npc = nipecotic acid; Ahx = NCCCCCC(=O)O

T1: human ferroportin (SLC40A1) fused with GFP, stably expressed in HEK293 cells (human, UniProt Q9NP59 1-571)
T1 sequence (looked up): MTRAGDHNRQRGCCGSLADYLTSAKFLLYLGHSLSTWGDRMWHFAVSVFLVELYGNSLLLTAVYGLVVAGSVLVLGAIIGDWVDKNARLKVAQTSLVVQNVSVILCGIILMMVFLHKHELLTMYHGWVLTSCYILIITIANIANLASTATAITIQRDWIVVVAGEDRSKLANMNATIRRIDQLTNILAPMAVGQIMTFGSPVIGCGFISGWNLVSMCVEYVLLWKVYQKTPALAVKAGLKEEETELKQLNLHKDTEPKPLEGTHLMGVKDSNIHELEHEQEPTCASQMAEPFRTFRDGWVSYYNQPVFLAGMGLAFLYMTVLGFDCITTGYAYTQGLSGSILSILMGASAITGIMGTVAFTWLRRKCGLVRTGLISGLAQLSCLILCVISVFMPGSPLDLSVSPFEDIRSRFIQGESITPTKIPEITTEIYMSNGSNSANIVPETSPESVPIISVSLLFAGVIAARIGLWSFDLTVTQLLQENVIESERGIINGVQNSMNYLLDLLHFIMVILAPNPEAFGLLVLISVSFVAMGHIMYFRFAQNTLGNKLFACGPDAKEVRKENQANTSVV

B1: Compd ID 120 (peptide)
peptide: DTHXPCIKFKKC
modifications: Isovaleric acid-DTH-[Phe(4-COOH)-PCI-[(D)Lys]-F-[Lys(Peg11-Palm)]-[(D)Lys]-C-NH2
B2: Compd ID 109 (peptide)
peptide: Isovaleryl-DTH[Dip][Npc]CI[dK]FK([PEG12-Palmitoyl])KC-NH2
modifications: disulfide 6-12 (inferred)
B3: Compd ID 97 (peptide)
peptide: Isovaleryl-DTHFPCI[dK]FK([PEG12-Palmitoyl])K[dC]-NH2
modifications: disulfide 6-12 (inferred)
B4: Compd ID 116 (peptide)
peptide: DTHFPXIKFKKC
modifications: Isovaleric acid-DTHFP-[a-MeCys]-I-[(D)Lys]-F-[Lys(Peg11-Palm)]-K-C-NH2
B5: Compd ID 117 (peptide)
peptide: Isovaleryl-DTH[Dip][Npc]CI[dK]FK([PEG12-Palmitoyl])[dK]C-NH2
modifications: disulfide 6-12 (inferred)
B6: Compd ID 112 (peptide)
peptide: Isovaleryl-DTH[Dip][Npc]CI[dK][2Nal]K([PEG12-Palmitoyl])KC-NH2
modifications: disulfide 6-12 (inferred)
B7: Compd ID 105 (peptide)
peptide: DTHXPCIKXKKC
modifications: Isovaleric acid-D-T-H-[Dpa]-P-C-I-[(D)Lys]-[b-homoPhe]-Lys[PEG11-Palm]-[(D)Lys]-[Cys]-NH2
B8: Compd ID 114 (peptide)
peptide: DTHFPCIKFKKX
modifications: Isovaleric acid-DTH-F-PCI-[(D)Lys]-F-[Lys(Peg11-Palm)]-K-[a-MeCysl-NH2
B9: Compd ID 99 (peptide)
peptide: DTHFPCIKFKXC
modifications: Isovaleric acid-DTHFPCI-[(D)Lys]-F-Lys[PEG11-Palm]-Dap-[Cys]-NH2
B10: Compd ID 102 (peptide)
peptide: DTHFPCIKXKKC
modifications: Isovaleric acid-DTHFPCI-[(D)Lys]-[Nal]-Lys[PEG11-Palm]-K-[Cys]-NH2
B11: Compd ID 107 (peptide)
peptide: Isovaleryl-DTHFPCI[dK]F[dK]([PEG12-Palmitoyl])[dK]C-NH2
modifications: disulfide 6-12 (inferred)
B12: Compd ID 6 (peptide)
peptide: DTHFPCIKFKPRC
modifications: Isovaleric acid-DTHFPCIKF-Lys[PEG11-Palm]-PRC-NH2
B13: Compd ID 100 (peptide)
peptide: DTHFPCIKXKKC
modifications: Isovaleric acid-DTHFPCI-[(D)Lys]-[Dpa]-Lys[PEG11-Palm]-K-[Cys]-NH2
B14: Compd ID 121 (peptide)
peptide: DTHXPCIKFKKC
modifications: Isovaleric acid-DTH-[b-hPhe]-PCI-[(D)Lys]-F-[Lys(Peg11-Palm)]-[(D)Lys]-C-NH2
B15: Compd ID 104 (peptide)
peptide: DTHXPCIKFKKC
modifications: Isovaleric acid-D-T-H-[Dpa]-P-C-I-[(D)Lys]-F-Lys[PEG11-Palm]-K-[Cys]-NH2
B16: Compd ID 96 (peptide)
peptide: Isovaleryl-DTHFPCI[dK]FK(Docosanoyl)KC-NH2
modifications: disulfide 6-12 (inferred)
B17: Compd ID 101 (peptide)
peptide: DTHFPCIKXKKC
modifications: Isovaleric acid-DTHFPCI-[(D)Lys]-[b-homoPhe]-Lys[PEG11-Palm]-K-[Cys]-NH2
B18: Compd ID 127 (peptide)
peptide: Isovaleryl-DTH[Dip][Npc]CI[dK][Phe(3,4-F2)]K([PEG12-Palmitoyl])KC-NH2
modifications: disulfide 6-12 (inferred)
B19: Compd ID 106 (peptide)
peptide: Isovaleryl-DTHFPCIFK([PEG12-Palmitoyl])KC-NH2
modifications: disulfide 6-11 (inferred)
B20: Compd ID 110 (peptide)
peptide: Isovaleryl-DTH[Dip][Npc]CI[dK][Phe(4-tBu)]K([PEG12-Palmitoyl])KC-NH2
modifications: disulfide 6-12 (inferred)
B21: Compd ID 118 (peptide)
peptide: Isovaleryl-DTHF[Npc]CI[dK]FK([PEG12-Palmitoyl])[dK]C-NH2
modifications: disulfide 6-12 (inferred)
B22: Compd ID 134 (peptide)
peptide: DTHXPCIKFKKX
modifications: Isovaleric acid-DTH-[Dpa]-PCI-[(D)Lys]-F-[Lys(Peg11-Palm)]-[(D)Lys]-[N-Me-Cys]-NH2
B23: Compd ID 131 (peptide)
peptide: DTHXPCIKXKKC
modifications: Isovaleric acid-DTH-[Dpa]-PCI-[(D)Lys]-[Dpa]-[Lys(Peg11-Palm)]-[(D)Lys]-C-NH2
B24: Compd ID 122 (peptide)
peptide: DTHXPCIKXKKC
modifications: Isovaleric acid-DTH-[Dpa]-PCI-[(D)Lys]-[b-hPhe]-[Lys(Peg11-Palm)]-[(D)Lys]-C-NH2
B25: Compd ID 130 (peptide)
peptide: Isovaleryl-DIH[Dip]PCI[dK]FK([PEG12-Palmitoyl])[dK]C-NH2
modifications: disulfide 6-12 (inferred)
B26: Compd ID 94 (peptide)
peptide: Isovaleryl-DTHFPCI[dK]FK([PEG4′-γGlu-Palmitoyl])KC-NH2
modifications: disulfide 6-12 (inferred)
B27: Compd ID 98 (peptide)
peptide: Isovaleryl-DTHFPCI[dK]FK([PEG12-Palmitoyl])K[Pen]-NH2
modifications: disulfide 6-12 (inferred)
B28: Compd ID 133 (peptide)
peptide: DTHXPCIKFKKX
modifications: Isovaleric acid-DTH-[Dpa]-PCI-[(D)Lys]-F-[Lys(Peg11-Palm)]-K-[N-Me-Cys]-NH2
B29: Compd ID 128 (peptide)
peptide: DTHXPCIKFKKC
modifications: Isovaleric acid-DTH-[a-MePhe]-PCI-[(D)Lys]-F-[Lys(Peg11-Palm)]-[(D)Lys]-C-NH2
B30: Compd ID 90 (peptide)
peptide: Isovaleryl-DTHFPCI[dK]FK([PEG2′-PEG2′-Ahx-Palmitoyl])KC-NH2
modifications: disulfide 6-12 (inferred)
B31: Compd ID 92 (peptide)
peptide: Isovaleryl-DTHFPCI[dK]FK([PEG4′-Ahx-Palmitoyl])KC-NH2
modifications: disulfide 6-12 (inferred)
B32: Compd ID 115 (peptide)
peptide: DTHFPXIKFKKX
modifications: Isovaleric acid-DTHFP-[a-MeCys]-I-[(D)Lys]-F-[Lys(Peg11-Palm)]-K-[a-MeCys]-NH2
B33: Compd ID 91 (peptide)
peptide: Isovaleryl-DTHFPCI[dK]FK([PEG4′-Palmitoyl])KC-NH2
modifications: disulfide 6-12 (inferred)
B34: Compd ID 111 (peptide)
peptide: Isovaleryl-DTH[Dip][Npc]CI[dK][AEF]K([PEG12-Palmitoyl])KC-NH2
modifications: disulfide 6-12 (inferred)
B35: Compd ID 93 (peptide)
peptide: Isovaleryl-DTHFPCI[dK]FK([PEG4′-PEG4′-Palmitoyl])KC-NH2
modifications: disulfide 6-12 (inferred)
B36: Compd ID 132 (peptide)
peptide: DTHXPCIKFKKX
modifications: Isovaleric acid-DTH-[Dpa]-PCI-[(D)Lys]-F-[Lys(Peg11-Palm)]-[(D)Lys]-Pen-NH2
B37: Compd ID 8 (peptide)
peptide: DTHFPCIKFKC
modifications: Isovaleric acid-DTHFPCIKF-Lys[PEG11-Palm]-C-NH2
B38: Compd ID 7 (peptide)
peptide: DTHFPCIKFKPC
modifications: Isovaleric acid-DTHFPCIKF-Lys[PEG11-Palm]-PC-NH2
B39: Compd ID 103 (peptide)
peptide: DTHFPCIKXKKC
modifications: Isovaleric acid-DTHFPCI-[(D)Lys]-[bhomoPhe]-Lys[PEG11-Palm]-K-[Cys]-NH2
B40: Compd ID 95 (peptide)
peptide: Isovaleryl-DTHFPCI[dK]FK([PEG8′-Palmitoyl])KC-NH2
modifications: disulfide 6-12 (inferred)

target: T1, human ferroportin (SLC40A1) fused with …; test: cell-based or functional assay

FPN IC50	Binder
> 1000 nM	B1
2 nM	B2
41 nM	B3
11 nM	B4
2 nM	B5
4 nM	B6
31 nM	B7
3 nM	B8
21 nM	B9
17 nM	B10
60 nM	B11
17 nM	B12
16 nM	B13
9 nM	B14
27 nM	B15
30 nM	B16
24 nM	B17
3 nM	B18
40 nM	B19
3 nM	B20

FPN IC50	Binder
6 nM	B21
22.5 nM	B22
14 nM	B23
5 nM	B24
169 nM	B25
9 nM	B26
40 nM	B27
13.5 nM	B28
204 nM	B29
11 nM	B30
21 nM	B31
4 nM	B32
14 nM	B33
> 3000 nM	B34
18 nM	B35
4 nM	B36
6 nM	B37
10 nM	B38
20 nM	B39
28 nM	B40
